Source: publication PMC12589211, “Development of lisinopril radioconjugates for nuclear imaging of the angiotensin converting enzyme” (European Journal of Nuclear Medicine and Molecular Imaging, 2025)

Legend:
[1] = test system: human blood plasma proteins; experiment: in vitro; assay type: in vitro ADME; conditions: 30 min, 0.1 µM
Description: (§1) The n-octanol/phosphate buffered saline (PBS) distribution coefficients (logD values) of the radioconjugates (20 MBq/nmol) were determined using the shake-flask method, as previously reported (Supplementary material). The binding affinity of the radioconjugates (20 MBq/nmol) to serum proteins was assessed using an ultrafiltration assay as previously reported (Supplementary Material). Methods: The plasma protein binding of the radioconjugates (20 MBq/nmol) was assessed using mouse blood plasma (Lot N°: 32321, Rockland Immunochemicals, Inc., USA,; concentration of mouse serum albumin (MSA): ⁓550 µM) and human blood plasma (Stiftung Blutspende SRK Aargau-Solothurn, Switzerland; concentration of human serum albumin (HSA): ⁓800 µM), respectively. After incubation in mouse and human blood plasma (0.3 MBq in 150 μL) for 30 min at 37 °C, the samples were cooled on ice and diluted with ice-cold PBS (150 μL). The plasma protein-bound fraction was separated from the free (plasma protein-unbound) fraction of each sample by means of Amicon centrifugal filters (Amicon Ultra, 0.5 mL, Merck Millipore; cutoff 10 kDa) by ultrafiltration using a centrifuge (14000 rcf, 30 min at 4 °C). Afterwards, the filter inserts were inverted and centrifuged again (200 rcf) for 3 min to recover the protein-bound fraction of the radioconjugates. The activities of the free radioconjugates in the filtrate, as well as in the filter insert and the plasma protein-bound radioconjugate (bound), were counted for activity separately using a γ-counter (Wallac Wizard 1480, PerkinElmer). The total activity (total) was determined as the sum of the activities in the filtrate, filter insert, and protein-bound fractions. The percentage of radioconjugate bound to MSA and HSA was calculated as Abound/Atotal*100. The results were presented as average ± SD of 3 independent experiments.

[2] = test system: mouse blood plasma proteins; experiment: in vitro; assay type: in vitro ADME; conditions: 30 min, 0.1 µM
Description: as §1

in vivo = conditions: female, mouse, iv, 3 MBq; for tissue uptake at 1 h / tissue uptake at 3 h: total radioactivity
Description: All applicable international, national, and/or institutional guidelines for the care and use of laboratory animals were followed and the animal experiments were carried out according to the guidelines of the Swiss Regulations for Animal Welfare. Preclinical studies were ethically approved by the Cantonal Committee of Animal Experimentation and permitted by the responsible cantonal authorities (License N° 75743). Five-week-old female Crl: CD1-Foxn^nu (CD1/nude) mice were obtained from Charles River Laboratories (Sulzfeld, Germany) and fed with standard rodent chow ad libitum. The mice were subcutaneously inoculated with HEK-ACE (8 × 10^6 cells in 100 µL PBS) on the left shoulder and approximately one week later with HEK-ACE2 cells (4–6 × 10^6 cells in 100 µL PBS) on the right shoulder. Imaging and biodistribution studies were performed 2‒4 weeks later when the xenografts reached a size of 100–300 mm^3.
Mice were intravenously injected with 3 MBq [^67Ga]Ga-DOTA-LIS-02 or 3 MBq [^67Ga]Ga-NODAGA-LIS-02 (0.5 nmol, 100 µL) or 3 MBq [^44Sc]Sc-DOTA-LIS-02 (1 nmol, 100 µL) diluted in saline containing 0.05% bovine serum albumin (BSA). The mice were sacrificed 1 h and 3 h after administration of the respective radioconjugate. Selected tissues and organs were collected, weighed and counted for activity using the γ-counter. The results were listed as a percentage of the injected activity per gram of tissue mass (% IA/g), using counts of a defined volume of the original injection solution measured at the same time to calculate decay-corrected values. Statistical analysis was performed by applying a regular one-way ANOVA test with a Tukey’s multiple comparison post‐hoc test to compare the data of the radioconjugates. A p-value of < 0.05 was considered as statistically significant (GraphPad Prism software, version 8.3.1).

physchem = assay type: physicochemical; conditions: pH 7.4, logD value (n-octanol/PBS distribution coefficient)
Description: The n-octanol/phosphate buffered saline (PBS) distribution coefficients (logD values) of the radioconjugates (20 MBq/nmol) were determined using the shake-flask method, as previously reported (Supplementary material). The binding affinity of the radioconjugates (20 MBq/nmol) to serum proteins was assessed using an ultrafiltration assay as previously reported (Supplementary Material). Methods: A fixed amount of the respective radioconjugate (0.5 MBq, 25 µL) was added to radio-immunoassay (RIA) tubes containing a mixture of PBS pH 7.4 (1475 µL) and n-octanol (1500 µL). After vortexing vigorously for 1 min, the tubes were centrifuged (560 rcf) for 6 min to obtain phase separation. The activity in the organic and aqueous phases was determined using a γ-counter (Wallac Wizard 1480, PerkinElmer). The distribution coefficients were expressed as the logarithm of the ratio of counts per minute (cpm) measured in the n-octanol phase to the cpm measured in the PBS pH 7.4 phase and indicated as the average of three independent measurements ± SD, each performed with five replicates.

in vitro = in vitro ADME; conditions: plasma
Description: as §1

[3] = CD1/nude (Crl:CD1-Foxn nu), 1 h
[4] = CD1/nude (Crl:CD1-Foxn nu), 3 h
[5] = Crl:CD1-Foxn^nu (CD1/nude), 1 h
[6] = Crl:CD1-Foxn^nu (CD1/nude), 3 h
[7] = human, Fraction bound to human blood plasma proteins
[8] = mouse, Fraction bound to mouse blood plasma proteins
[9] = CD1/nude (Crl:CD1-Foxn nu), Biodistribution, Bone
[10] = CD1/nude (Crl:CD1-Foxn nu), Biodistribution, HEK-ACE xgft
[11] = CD1/nude (Crl:CD1-Foxn nu), Biodistribution, Intestines
[12] = CD1/nude (Crl:CD1-Foxn nu), Biodistribution, Liver
[13] = CD1/nude (Crl:CD1-Foxn nu), Biodistribution, Muscle
[14] = CD1/nude (Crl:CD1-Foxn nu), Biodistribution, Salivary glands
[15] = CD1/nude (Crl:CD1-Foxn nu), Biodistribution, Stomach
[16] = Crl:CD1-Foxn^nu (CD1/nude), Biodistribution, Blood
[17] = Crl:CD1-Foxn^nu (CD1/nude), Biodistribution, Heart
[18] = Crl:CD1-Foxn^nu (CD1/nude), Biodistribution, Kidneys
[19] = Crl:CD1-Foxn^nu (CD1/nude), Biodistribution, Lung
[20] = Crl:CD1-Foxn^nu (CD1/nude), Biodistribution, Spleen

Compound: O=C(O)CN1CCN(CC(=O)O)CCN(CC(=O)NCCCC[C@H](NC(=O)CCCCCCCNC(=O)NCCCC[C@H](N[C@@H](CCc2ccccc2)C(=O)O)C(=O)N2CCC[C@H]2C(=O)O)C(=O)O)CCN(CC(=O)O)CC1 [[^44Sc]Sc-DOTA-LIS-02] [metal not drawn]
- Fraction bound to human blood plasma proteins [1]: 49 ± 2%
- Fraction bound to mouse blood plasma proteins [2]: 42 ± 4%
- Biodistribution, Blood (in vivo; [3]): 0.24 ± 0.03 %IA/g
- Biodistribution, Bone (in vivo; [3]): 0.17 ± 0.02 %IA/g
- Biodistribution, Intestines (in vivo; [3]): 0.16 ± 0.02 %IA/g
- Biodistribution, Liver (in vivo; [3]): 0.14 ± 0.01 %IA/g
- Biodistribution, Muscle (in vivo; [3]): 0.16 ± 0.02 %IA/g
- Biodistribution, Salivary glands (in vivo; [3]): 0.19 ± 0.02 %IA/g
- Biodistribution, Stomach (in vivo; [3]): 0.22 ± 0.15 %IA/g
- Biodistribution, Bone (in vivo; [4]): 0.07 ± 0.03 %IA/g
- Biodistribution, Intestines (in vivo; [4]): 0.05 ± 0.01 %IA/g
- Biodistribution, Liver (in vivo; [4]): 0.09 ± 0.01 %IA/g
- Biodistribution, Muscle (in vivo; [4]): 0.07 ± 0.04 %IA/g
- Biodistribution, Salivary glands (in vivo; [4]): 0.09 ± 0.05 %IA/g
- Biodistribution, Stomach (in vivo; [4]): <0.05 %IA/g
- Biodistribution, Heart (in vivo; [5]): 0.18 ± 0.03 %IA/g
- Biodistribution, Kidneys (in vivo; [5]): 6.1 ± 0.8 %IA/g
- Biodistribution, Lung (in vivo; [5]): 2.0 ± 0.6 %IA/g
- Biodistribution, Spleen (in vivo; [5]): 0.14 ± 0.05 %IA/g
- Biodistribution, Blood (in vivo; [6]): <0.05 %IA/g
- Biodistribution, Heart (in vivo; [6]): <0.05 %IA/g
- Biodistribution, Kidneys (in vivo; [6]): 0.75 ± 0.07 %IA/g
- Biodistribution, Lung (in vivo; [6]): 0.13 ± 0.02 %IA/g
- Biodistribution, Spleen (in vivo; [6]): 0.06 ± 0.01 %IA/g

Compound: O=C(O)CN1CCN(CC(=O)O)CCN(CC(=O)NCCCC[C@H](NC(=O)CCCCCNC(=O)NCCCC[C@H](N[C@@H](CCc2ccccc2)C(=O)O)C(=O)N2CCC[C@H]2C(=O)O)C(=O)O)CCN(CC(=O)O)CC1 [[^67Ga]Ga-DOTA-LIS-01, metal not drawn]
- logD (physchem): -5.47 ± 0.17
- fraction unbound at 30 min, 0.1 µM (in vitro; [7]): 0.55
- fraction unbound at 30 min, 0.1 µM (in vitro; [8]): 0.54

Compound: O=C(O)CN1CCN(CC(=O)O)CCN(C(CCC(=O)NCCCC[C@H](NC(=O)CCCCCCCNC(=O)NCCCC[C@H](N[C@@H](CCc2ccccc2)C(=O)O)C(=O)N2CCC[C@H]2C(=O)O)C(=O)O)C(=O)O)CC1 (stereo partly shown) [[^67Ga]Ga-NODAGA-LIS-02, metal not drawn]
- logD (physchem): -5.04 ± 0.09
- fraction unbound at 30 min, 0.1 µM (in vitro; [7]): 0.46
- fraction unbound at 30 min, 0.1 µM (in vitro; [8]): 0.51
- tissue uptake at 1 h (in vivo; CD1/nude (Crl:CD1-Foxn nu)): 0.08 ± 0.01 %ID/g
- tissue uptake at 3 h (in vivo; CD1/nude (Crl:CD1-Foxn nu)): < 0.05 %ID/g
- tissue uptake at 1 h (in vivo; [9]): < 0.05 %ID/g
- tissue uptake at 3 h (in vivo; [9]): < 0.05 %ID/g
- tissue uptake at 1 h (in vivo; [10]): 3.6 ± 0.9 %ID/g
- tissue uptake at 3 h (in vivo; [10]): 5.2 ± 0.5 %ID/g
- tissue uptake at 1 h (in vivo; [11]): 23 ± 6 %ID/g
- tissue uptake at 3 h (in vivo; [11]): 2.3 ± 1 %ID/g
- tissue uptake at 1 h (in vivo; [12]): 18 ± 1 %ID/g
- tissue uptake at 3 h (in vivo; [12]): 9.6 ± 1.2 %ID/g
- tissue uptake at 1 h (in vivo; [13]): 0.11 ± 0.12 %ID/g
- tissue uptake at 3 h (in vivo; [13]): < 0.05 %ID/g
- tissue uptake at 1 h (in vivo; [14]): < 0.05 %ID/g
- tissue uptake at 3 h (in vivo; [14]): < 0.05 %ID/g
- tissue uptake at 1 h (in vivo; [15]): 0.31 ± 0.18 %ID/g
- tissue uptake at 3 h (in vivo; [15]): 0.15 ± 0.1 %ID/g
- tissue uptake at 3 h (in vivo; [16]): < 0.05 %ID/g
- tissue uptake at 1 h (in vivo; [17]): < 0.05 %ID/g
- tissue uptake at 3 h (in vivo; [17]): < 0.05 %ID/g
- tissue uptake at 1 h (in vivo; [18]): 1.7 ± 0.6 %ID/g
- tissue uptake at 3 h (in vivo; [18]): 0.49 ± 0.13 %ID/g
- tissue uptake at 1 h (in vivo; [19]): 0.63 ± 0.06 %ID/g
- tissue uptake at 3 h (in vivo; [19]): 0.11 ± 0.04 %ID/g
- tissue uptake at 1 h (in vivo; [20]): < 0.05 %ID/g
- tissue uptake at 3 h (in vivo; [20]): < 0.05 %ID/g

Compound: O=C(O)CN1CCN(CC(=O)O)CCN(CC(=O)NCCCC[C@H](NC(=O)CCCCCCCNC(=O)NCCCC[C@H](N[C@@H](CCc2ccccc2)C(=O)O)C(=O)N2CCC[C@H]2C(=O)O)C(=O)O)CCN(CC(=O)O)CC1 [[^67Ga]Ga-DOTA-LIS-02] [metal not drawn]
- Biodistribution, Intestines (in vivo; [4]): 0.22 ± 0.90 %IA/g
- Biodistribution, Liver (in vivo; [4]): 0.76 ± 0.13 %IA/g
- Biodistribution, Spleen (in vivo; [5]): 0.51 ± 0.65 %IA/g

Compound: O=C(O)CN1CCN(CC(=O)O)CCN(CC(=O)NCCCC[C@H](NC(=O)CCCCCCCNC(=O)NCCCC[C@H](N[C@@H](CCc2ccccc2)C(=O)O)C(=O)N2CCC[C@H]2C(=O)O)C(=O)O)CCN(CC(=O)O)CC1 [[^67Ga]Ga-DOTA-LIS-02, metal not drawn]
- fraction unbound at 30 min, 0.1 µM (in vitro; [7]): 0.5 ± 0.01
- fraction unbound at 30 min, 0.1 µM (in vitro; [8]): 0.54
- tissue uptake at 1 h (in vivo; CD1/nude (Crl:CD1-Foxn nu)): 0.24 ± 0.01 %ID/g
- tissue uptake at 3 h (in vivo; CD1/nude (Crl:CD1-Foxn nu)): 0.08 ± 0.03 %ID/g
- tissue uptake at 1 h (in vivo; [9]): 0.14 ± 0.01 %ID/g
- tissue uptake at 3 h (in vivo; [9]): < 0.05 %ID/g
- tissue uptake at 1 h (in vivo; [10]): 14 ± 3 %ID/g
- tissue uptake at 3 h (in vivo; [10]): 16 ± 1 %ID/g
- tissue uptake at 1 h (in vivo; [13]): 0.1 ± 0.03 %ID/g
- tissue uptake at 3 h (in vivo; [13]): < 0.05 %ID/g
- tissue uptake at 1 h (in vivo; [14]): 0.18 ± 0.04 %ID/g
- tissue uptake at 3 h (in vivo; [14]): < 0.05 %ID/g
- tissue uptake at 1 h (in vivo; [15]): 0.16 ± 0.05 %ID/g
- tissue uptake at 3 h (in vivo; [16]): < 0.05 %ID/g
- tissue uptake at 1 h (in vivo; [17]): 0.2 ± 0.06 %ID/g
- tissue uptake at 3 h (in vivo; [17]): < 0.05 %ID/g
- tissue uptake at 1 h (in vivo; [18]): 6.3 ± 1 %ID/g
- tissue uptake at 3 h (in vivo; [18]): 1.1 ± 0.2 %ID/g
- tissue uptake at 1 h (in vivo; [19]): 2.4 ± 0.7 %ID/g
- tissue uptake at 3 h (in vivo; [19]): 0.21 ± 0.05 %ID/g
- tissue uptake at 3 h (in vivo; [20]): 0.05 ± 0.01 %ID/g
